# Data published in patent publication US20220251222A1 (Johns Hopkins, published 2022).
# T1: IL-8RB expressed on lentivirally transduced HEK 293T cells (UniProt P25025 1-360, limits assumed)
# T1 construct: whole, on cells; also called IL-8R^+ cells; IL-6Rα^-/IL-8R^+ HEK 293T cells
# T1 sequence (looked up): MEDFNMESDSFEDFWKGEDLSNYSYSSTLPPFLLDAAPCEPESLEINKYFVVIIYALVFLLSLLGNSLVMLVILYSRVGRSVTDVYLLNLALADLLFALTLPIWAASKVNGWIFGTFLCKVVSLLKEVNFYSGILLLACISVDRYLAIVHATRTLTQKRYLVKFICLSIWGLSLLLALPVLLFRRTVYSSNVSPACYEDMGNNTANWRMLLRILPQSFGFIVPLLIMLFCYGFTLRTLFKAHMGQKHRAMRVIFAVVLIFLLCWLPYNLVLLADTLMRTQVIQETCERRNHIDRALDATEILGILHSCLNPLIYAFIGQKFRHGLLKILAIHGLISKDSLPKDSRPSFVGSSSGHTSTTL
# T2: IL-6Rα expressed on lentivirally transduced HEK 293T cells (UniProt P08887 20-468, limits assumed)
# T2 construct: whole, on cells; also called IL-6Rα^+ cells; IL-6Rα^+/IL-8R^- HEK 293T cells
# T2 sequence (looked up): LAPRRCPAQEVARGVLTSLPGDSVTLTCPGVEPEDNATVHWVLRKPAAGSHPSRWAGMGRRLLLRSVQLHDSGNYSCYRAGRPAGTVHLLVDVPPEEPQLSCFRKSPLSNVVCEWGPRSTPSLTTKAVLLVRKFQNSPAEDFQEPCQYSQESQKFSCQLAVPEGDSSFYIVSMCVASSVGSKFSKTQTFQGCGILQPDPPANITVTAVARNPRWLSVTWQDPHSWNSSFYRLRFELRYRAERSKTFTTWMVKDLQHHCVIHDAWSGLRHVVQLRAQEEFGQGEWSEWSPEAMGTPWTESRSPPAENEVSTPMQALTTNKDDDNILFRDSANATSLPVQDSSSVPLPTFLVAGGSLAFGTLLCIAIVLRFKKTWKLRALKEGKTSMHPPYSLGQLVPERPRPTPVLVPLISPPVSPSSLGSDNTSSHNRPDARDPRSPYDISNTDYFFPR
# B1: tocilizumab, recombinant monoclonal hIgG1 (anti-IL-6Rα) (antibody, V domains shown)
# VH: EVQLQESGPGLVRPSQTLSLTCTVSGYSITSDHAWSWVRQPPGRGLEWIGYISYSGITTYNPSLKSRVTMLRDTSKNQFSLRLSSVTAADTAVYYCARSLARTTAMDYWGQGSLVTVSS
# VL: DIQMTQSPSSLSASVGDRVTITCRASQDISSYLNWYQQKPGKAPKLLIYYTSRLHSGVPSRFSGSGSGTDFTFTISSLQPEDIATYYCQQGNTLPYTFGQGTKVEIK
# notes: also called anti-IL-6Rα antibody
# B2: BS2 bispecific antibody (scFv-IgG fusion: 10H2 IgG with tocilizumab scFv on the light chains) (bispecific antibody)
# heavy: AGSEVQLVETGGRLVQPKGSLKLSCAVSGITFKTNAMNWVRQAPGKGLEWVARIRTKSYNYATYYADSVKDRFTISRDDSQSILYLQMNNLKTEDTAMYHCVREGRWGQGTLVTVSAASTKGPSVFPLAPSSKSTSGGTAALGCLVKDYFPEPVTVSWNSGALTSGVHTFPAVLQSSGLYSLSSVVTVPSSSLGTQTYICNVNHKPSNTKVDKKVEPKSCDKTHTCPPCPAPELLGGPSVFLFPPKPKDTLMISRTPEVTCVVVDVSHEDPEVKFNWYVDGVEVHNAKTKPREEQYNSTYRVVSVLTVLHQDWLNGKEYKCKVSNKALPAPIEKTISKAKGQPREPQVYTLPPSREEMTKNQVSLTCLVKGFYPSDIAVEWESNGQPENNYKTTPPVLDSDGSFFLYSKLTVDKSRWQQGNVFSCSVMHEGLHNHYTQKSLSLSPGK
# light: AGSQAVVTQESALTTSPGETVTLTCRSSTGAVTTSNYANWVQEKPDHLFTGLIGGTNNRPPGVPARFSGSLIGDKAALTITGAQIEDEAIYFCALWYSNHLVFGGGTKLTVLRTVAAPSVFIFPPSDEQLKSGTASVVCLLNNFYPREAKVQWKVDNALQSGNSQESVTEQDSKDSTYSLSSTLTLSKADYEKHKVYACEVTHQGLSSPVTKSFNRGECGGGGSGGGGSEVQLQESGPGLVRPSQTLSLTCTVSGYSITSDHAWSWVRQPPGRGLEWIGYISYSGITTYNPSLKSRVTMLRDTSKNQFSLRLSSVTAADTAVYYCARSLARTTAMDYWGQGSLVTVSSGGGGSGGGGSGGGGSDIQMTQSPSSLSASVGDRVTITCRASQDISSYLNWYQQKPGKAPKLLIYYTSRLHSGVPSRFSGSGSGTDFTFTISSLQPEDIATYYCQQGNTLPYTFGQGTKVEIK
# notes: Human IgG1-based
# What was measured:
# [1] = biological target: T1, IL-8RB expressed on lentivirally …; assay: flow cytometry binding titration on IL-6R-/IL-8R+ HEK 293T cells, detected with FITC anti-human IgG1
# Protocol: (§1) HEK 293T cells were cultured in Dulbecco's modified Eagle's medium (DMEM, Mediatech) supplemented with 10% (Hyclone), 2 mM L-glutamine and 100 U/mL penicillin-streptomycin (Gibco). For surface binding assays, IL-6Rα⁺/IL-8R⁻, IL-6Rα⁻/IL-8R⁺, IL-6Rα⁺/IL-8R⁺, and […] HEK 293T cells were trypsinized for detachment, resuspended in PBSA, and then aliquoted into 96-well plates (1×10⁵ cells per well). Cells were incubated with titrations of various monoclonal or bispecific antibodies for 2 hr at 4° C. with rotation. Cells were then washed and incubated with a 1:50 dilution of fluorescein isothiocyanate (FITC)-conjugated anti-human IgG1 antibody (Sigma-Aldrich, Clone 8c/6-39) in PBSA for 15 min at 4° C. After a final wash, cells were resuspended in PBSA and analyzed on a CytoFLEX flow cytometer (Beckman Coulter). Binding isotherms were fitted to a first-order logistic model and KD values were calculated using GraphPad Prism data analysis software. Mean fluorescence intensity (MFI) of unstimulated cells was subtracted. […]
# (§2) To determine whether engineered bispecific binding agents BS1 and BS2 specifically engage target antigens in a physiologically relevant context, antibody binding to IL-6Rα⁺/IL-8R⁻, IL-6Rα⁻/IL-8R⁺, IL-6Rα⁺/IL-8R⁺, and IL-6Rα⁻/IL-8R⁻ lentivirally transduced HEK 293T cells was measured via flow cytometry. […]
# [2] = biological target: T2, IL-6Rα expressed on lentivirally …; assay: flow cytometry binding titration on IL-6R+/IL-8R- HEK 293T cells, detected with FITC anti-human IgG1
# Protocol: as §1, §2
# [3] = biological target: T2, IL-6Rα expressed on lentivirally …; assay: flow cytometry titration on IL-6Rα+/IL-8R+ HEK 293T cells; IL-6Rα+/IL-8R+ 293T cells (FIG. 7C)
# Protocol: as §1, §2
# [4] = biological target: T2, IL-6Rα expressed on lentivirally …; assay: flow cytometry titration on IL-6Rα+/IL-8R- HEK 293T cells; IL-6Rα+/IL-8R- 293T cells (FIG. 7A)
# Protocol: as §1, §2
# [5] = biological target: T1, IL-8RB expressed on lentivirally …; assay: competition with 400 nM His-tagged IL-8 on IL-6Rα-/IL-8R+ HEK 293T cells, flow cytometry
# Protocol: IL-6Rα⁺/IL-8R⁻ and IL-6Rα⁻/IL-8R⁺ HEK 293T cells were cultured as previously described, and were trypsinized, resuspended in PBSA, and aliquoted into 96-well plates (2×10⁵ cells per well). IL-6Rα⁺/IL-8R⁻ 293T cells were incubated with titrations of various monoclonal or bispecific antibodies in the presence of saturating concentration of biotinylated IL-6 (100 nM) (Acro Biosystem, cat #: IL6-H8218-25UG) for 2 hr at 4° C. with rotation. Cells were then washed and incubated with 1:200 dilution of Alexa Fluor 647-conjugated streptavidin (Fisher Scientific, cat #: S21374) in PBSA for 15 min at 4° C. After a final wash, cells were resuspended in PBSA and analyzed on a CytoFLEX flow cytometer (Beckman Coulter). Curves were fitted to a first-order logistic model and IC₅₀ values were calculated using GraphPad Prism data analysis software. Mean fluorescence intensity (MFI) of unstimulated cells was subtracted. Similarly, IL-6Rα⁻/IL-8R⁺ 293T cells were incubated with titrations of various monoclonal or bispecific antibodies with saturating concentration of His-tagged IL-8 (400 nM) (Sino Biological, cat #: 10098-H08Y-100) for 2 hr at 4° C. with rotation. […] After a final wash, cells were resuspended in PBSA and analyzed on a CytoFLEX flow cytometer (Beckman Coulter). Curves were fitted to a first-order logistic model and IC₅₀ values were calculated using GraphPad Prism data analysis software. […]
Binder,binding result [1],EC50 (read off the curve) [2] [nM],Kd [3] [nM],Kd [4] [nM],IC50 [5] [nM]
B1,no binding (tested: 1e-6 M),~3,3.1,,
B2,,,,19,22
